Measurements taken from publication PMC2742894, “Crystal Structure of the N-Acetylmannosamine Kinase Domain of GNE” (PLoS ONE, 2009).

Molecular target: the molecule itself
Test: SEC; Superdex-200 10/300; GNE kinase domain at 6 mg per mL in 20 mM HEPES pH 7.5, 500 mM NaCl, 5 mM MgCl2, 1 mM TCEP; apparent molecular weight from a calibration curve

B1: N-acetylmannosamine kinase domain of UDP-GlcNAc 2-epimerase/N-acetylmannosamine kinase (GNE), residues 406-720 (domain or fragment, human, UniProt Q9Y223 406-720, looked up)
chain: TLSALAVDLGGTNLRVAIVSMKGEIVKKYTQFNPKTYEERINLILQMCVEAAAEAVKLNCRILGVGISTGGRVNPREGIVLHSTKLIQEWNSVDLRTPLSDTLHLPVWVDNDGNCAALAERKFGQGKGLENFVTLITGTGIGGGIIHQHELIHGSSFCAAELGHLVVSLDGPDCSCGSHGCIEAYASGMALQREAKKLHDEDLLLVEGMSVPKDEAVGALHLIQAAKLGNAKAQSILRTAGTALGLGVVNILHTMNPSLVILSGVLASHYIHIVKDVIRQQALSSVQDVDVVVSDLVDPALLGAASMVLDYTTRR
notes: UDP-GlcNAc 2-epimerase/N-acetylmannosamine kinase (GNE), human, kinase domain, residues 406-720; cDNA codon optimized for E. coli and synthesized; Cloned into pET28-MHL (gi:134105571); For crystallization 1:100 chymotrypsin (w/w) and 5 mM ADP were added to the protein stock, so the crystallized chain may be trimmed; residues 475-498 are not seen in the electron density; A …
- stoichiometry N: 2
